Data from PMC8455534, “A new carboxypeptidase from Aspergillus niger with good thermostability, pH stability and broad substrate specificity” (Scientific Reports, 2021).

How the values were obtained:
Assay in all cases: ninhydrin release assay, A570, Lineweaver-Burk
Assay type in all cases: biochemical, Aspergillus niger
Conditions in all cases: 0.1 mol L^−1 disodium hydrogen phosphate-citric acid buffer, pH 6.0, 45 °C
[1] = tested on: T1, O=C(O)CNC(=O)[C@@H]1CCCN1C(=O)OCc1ccccc1
T1 construct: ORF 1479 bp, 492 residues with predicted 19-residue signal peptide; secreted from Pichia pastoris GS115 (pPIC9K), purified; no tag told
From the text: (§1) ninhydrin release assay, A570, Lineweaver-Burk on CapA (serine carboxypeptidase)

[2] = tested on: T2, C[C@H](NC(=O)OCc1ccccc1)C(=O)N[C@@H](CCCCN)C(=O)O
T2 construct: ORF 1479 bp, 492 residues with predicted 19-residue signal peptide; secreted from Pichia pastoris GS115 (pPIC9K), purified; no tag told
From the text: as §1

[3] = tested on: T3, CC(C)C[C@H](NC(=O)[C@H](Cc1ccccc1)NC(=O)OCc1ccccc1)C(=O)O
T3 construct: ORF 1479 bp, 492 residues with predicted 19-residue signal peptide; secreted from Pichia pastoris GS115 (pPIC9K), purified; no tag told
From the text: as §1

[4] = tested on: T4, C[C@H](NC(=O)OCc1ccccc1)C(=O)N[C@@H](CCC(=O)O)C(=O)O
T4 construct: ORF 1479 bp, 492 residues with predicted 19-residue signal peptide; secreted from Pichia pastoris GS115 (pPIC9K), purified; no tag told
From the text: as §1

[5] = tested on: T5, C[C@H](NC(=O)CNC(=O)OCc1ccccc1)C(=O)O
T5 construct: ORF 1479 bp, 492 residues with predicted 19-residue signal peptide; secreted from Pichia pastoris GS115 (pPIC9K), purified; no tag told
From the text: as §1

## CapA (serine carboxypeptidase) (Aspergillus niger CBS 513.88)
[1]
  Km: 1170 ± 210 µM
  Vmax: 9770 µM/min/mg
  kcat: 0.47 ± 0.02 s⁻¹
  kcat/Km: 400 ± 50 M⁻¹ s⁻¹
[2]
  Km: 180 ± 30 µM
  Vmax: 41900 µM/min/mg
  kcat: 2.32 ± 0.17 s⁻¹
  kcat/Km: 12900 ± 1130 M⁻¹ s⁻¹
[3]
  Km: 63 ± 10 µM
  Vmax: 54800 µM/min/mg
  kcat: 11.7 ± 1.02 s⁻¹
  kcat/Km: 186000 ± 16700 M⁻¹ s⁻¹
[4]
  Km: 1440 ± 90 µM
  Vmax: 6490 µM/min/mg
  kcat: 0.18 ± 0.01 s⁻¹
  kcat/Km: 130 ± 10 M⁻¹ s⁻¹
[5]
  Km: 240 ± 20 µM
  Vmax: 42700 µM/min/mg
  kcat: 1.71 ± 0.08 s⁻¹
  kcat/Km: 7130 ± 480 M⁻¹ s⁻¹
